T1: UPK2 antigen on 293T cells (6600, Lenti-UPK2 antigen plasmid) (Homo sapiens (Human), UniProt O00526 85-184)
T1 construct: 293T cells transiently transfected with plasmid 6600 or infected with virus packaged from it; also called UPK2 target cells; 293T cells with UPK2 target
T1 sequence: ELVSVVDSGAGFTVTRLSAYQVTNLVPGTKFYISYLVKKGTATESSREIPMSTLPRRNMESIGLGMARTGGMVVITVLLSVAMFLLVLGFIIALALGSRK

B1: S7F9 recombinant anti-UPK2 monoclonal antibody (murine-human chimeric) (antibody, V domains shown)
VH: QVQLKQSGPGLVRPGASVTMSCKASGYTFTSNWMHWVKQRPGQGLDWIGMIDPSNSDTRLNQKFKDKATLNVDKSSNTAYMQLSSLTSDDSAVYYCMRGGGDYWGQGTTLTVSS
VL: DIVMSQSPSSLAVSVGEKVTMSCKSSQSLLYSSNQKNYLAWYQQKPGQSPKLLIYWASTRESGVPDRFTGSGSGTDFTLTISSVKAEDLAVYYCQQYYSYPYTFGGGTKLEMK
B2: S3D10 recombinant anti-UPK2 monoclonal antibody (murine-human chimeric) (antibody, V domains shown)
VH: QVQLQQSGAELVRSGASVKLSCTDSGFNIKDYYMNWVKQRPEQGLEWIGWIDPENGVTQYDPKFQGKATVTADTFSNTAYLQLSSLTSEDTAVYYCNANYKYDWFGYWGQGTLVTVSA
VL: NIVMTQSPSSLSASLGERVSLTCRASQEISGYLSWLQQKPDGTIKRLIYAASTLDSGVPERFSGSRSGSDYSLTISSLESEDFADYYCLQYASYPWTFGGGTKLEMK
B3: S2B7 recombinant anti-UPK2 monoclonal antibody (murine-human chimeric) (antibody, V domains shown)
VH: EVQLQQSGAELMKPGTSVKMSCKAAGYTFTKYWIGWVKQRPGHGLEWIGDIYPGGGYTLFNEKFKGKATLTADTSSSTAYMQLSSLTSEDSAIYYCARGNYWGQGTTLTVSS
VL: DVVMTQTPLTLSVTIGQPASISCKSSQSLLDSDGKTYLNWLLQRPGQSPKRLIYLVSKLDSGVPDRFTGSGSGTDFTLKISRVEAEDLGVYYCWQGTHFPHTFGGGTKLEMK
B4: S3A4 recombinant anti-UPK2 monoclonal antibody (murine-human chimeric) (antibody, V domains shown)
VH: EVKLKQSGAELVKPGASVKLSCKASGYTLTSYYIYWVKQRPGQGLEWIGGISPSNGNTYFTEKFKNMATLTVDKSSNTAYMQLSSLTSEDSAVYYCARNYDYDVGFAYWGQGTLVTVSS
VL: DVVMTQTPLSLPVSLGDQASISCRSSQSIVHSNGNTYLEWYLQKPGQSPKLLIYKVSNRFSGVPDRFSGSGSGTDFTLKISRVEAEDLGVYYCFQGSHVPFTFGSGTKLEIK
B5: S7F11 recombinant anti-UPK2 monoclonal antibody (murine-human chimeric) (antibody, V domains shown)
VH: EVQLKESGAELVRSGASVKLSCTASAFNIKDYYMNWMKQRPEQGLEWIGWIDPENGDTKYAPKFQGKATITADTSSSTAYLQLTSLTSEDSAVFYCNVNYKYDWFAYWGQGTLVTVSA
VL: DVVMTQSQKFMSTSVGDRVSVTCKASQNVGTNVAWYQQKPGQSPRALIYSASYRYSGVPDRFTGSGSGTDFTLTISNVQSEDLAEYFCQQYNTYPWTFGGGTKLEIK

This test deals with T1, UPK2 antigen on 293T cells (6600, …). The experiment in a line: flow cytometry, histogram of 293T-6600 cells (293T transiently transfected with plasmid 6600, UPK2-noflag) stained with the antibody; goat-anti-human FITC secondary per paragraph 179.
Consider B1, for which the “percent of cells in the positive gate” value amounted to 0.19%.

In the case of B2, the “percent of cells in the positive gate” value was found to be 0.07%.

For B3, the “percent of cells in the positive gate” value stood at 0.06%.

Turning to B4, the “percent of cells in the positive gate” value came to 27%.

In the case of B5, the “percent of cells in the positive gate” value worked out at 0.48%.

The record behind these values is patent US20250025506A1 (INNOVATIVE CELLULAR THERAPEUTICS, published 2025).
